± gives the standard deviation.
Assay: protein stability index of a GFP-peptide fusion (GPS, HEK-293T) (PSI 1-6); higher = more stable
[1] = treatment: DMSO, c terminus: a fixed tail appended
[2] = treatment: MLN4924 1 uM, 8 h, c terminus: a fixed tail appended
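Also: 24-mer peptide tiles fused after GFP, lentivirally expressed, FACS-sorted into six equal bins by GFP/DsRed ratio, decoded by Illumina sequencing, PSI is the read-weighted mean bin number.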

| Sequence | protein stability index [1] | protein stability index [2] | protein stability index (treatment: DMSO, c terminus: native) | protein stability index (treatment: MLN4924 1 uM, 8 h, c terminus: native) |
| --- | --- | --- | --- | --- |
| REAEKQNYLAEHCPPLHIPGSMSE [TNNI2] | 4.67 ± 0.25 | 4.72 ± 0.31 | – | – |
| RIQTQKEQAKENENGELQKIILPR [ZC2HC1C] | 4.77 ± 0.21 | 4.51 ± 0.41 | – | – |
| TATFAVHFMVLSKSGPGDGFFSSA [POMT2] | 2.84 ± 0.36 | 2.93 ± 0.51 | – | – |
| TKADIGTPSNFQHIGHVGWDPNTG [WASL] | 3.81 ± 0.21 | 3.85 ± 0.18 | – | – |
| KTSLLDQLTNTSGTVIGVTSCIVI [NETO1] | 3.14 ± 0.51 | 2.76 ± 0.43 | – | – |
| GKAATMEIPIHGNGEARQLPEDDG [ARFIP2] | 5.58 ± 0.15 | 5.34 ± 0.21 | – | – |
| LPQVAEEISGPLTSANKITLVSSG [FLOT1] | 3.78 ± 0.23 | 4.23 ± 0.21 | – | – |
| NESRRQIQSLTCEVDGLRGTNEAL [PRPH] | 4.7 ± 0.29 | 5.11 ± 0.056 | – | – |
| NYGADTNTRNYEGQTPLAVSISIS [ASB7] | 2.65 ± 0.45 | 2.77 ± 0.48 | – | – |
| QPPQSQAQVPPAAPHHHHHHSHSG [PLK2] | 4.71 ± 0.2 | 4.64 ± 0.13 | – | – |
| EGFHNYHHSFPYDYSASEYRWHIN [SCD] | 2.37 ± 0.18 | 2.48 ± 0.18 | – | – |
| VPSLNAALMHTLQRHRDILQVIYW [GOSR1] | 2.23 ± 0.55 | 2.4 ± 0.41 | – | – |
| GWCIFVYNLSPEADESVLWQLFGP [ELAVL3] | 2.8 ± 1.4 | 3.7 ± 1.2 | – | – |
| PTYKVMYKIVTAREWRCCPGHSGV [EMID1] | 2.5 ± 0.57 | 2.89 ± 0.75 | – | – |
| KLKGAEVTYMNMTAYNKGRLQSSF [PLD5] | 2.36 ± 0.22 | 2.72 ± 0.22 | – | – |
| SRVTDPVGDIVSFMHSFEEKYGRA [FAF2] | 3.34 ± 0.25 | 3.59 ± 0.36 | – | – |
| TRRTLKGHGNKVLCMDWCKDKRRI [GNB5] | 3.02 ± 0.37 | 3.25 ± 0.23 | – | – |
| EAPEAELSQAPAEGPDLVPAALGS [HES6] | 5.5 ± 0.31 | 5.41 ± 0.35 | – | – |
| REIARYLLEQGAQVNRRSAKGNTA [FEM1A] | 3.29 ± 0.12 | 3.54 ± 0.31 | – | – |
| CKVFGIHKACEVAPLQSVFQGQKT [TRIM63] | 2.81 ± 0.26 | 2.96 ± 0.39 | – | – |
| IADYLLLPLAEREHVSRALCIHTG [TRIB1] | 2.23 ± 0.47 | 2.02 ± 0.33 | – | – |
| LQLPQLSDLGLLRLCTWLLALSPD [FANCE] | 2.89 ± 0.6 | 2.37 ± 0.3 | – | – |
| DPNFKMEHQNKRSPLHAAAEAGHV [EHMT1] | 4.89 ± 0.22 | 5.04 ± 0.18 | – | – |

| Sequence | protein stability index [1] | protein stability index [2] | protein stability index (treatment: DMSO, c terminus: native) | protein stability index (treatment: MLN4924 1 uM, 8 h, c terminus: native) |
| --- | --- | --- | --- | --- |
| YPVTIGGKIVGSLCAIAGVLTIAL [KCNA1] | 2.35 ± 0.21 | 2.23 ± 0.16 | – | – |
| GLLSLLLPETLNSPLLETFSDLQV [SLC22A15] | 2.47 ± 0.67 | 2.68 ± 0.68 | – | – |
| SLRDKVLQLQKGSDTEAQCEVMQE [INTS3] | 5.11 ± 0.23 | 5.08 ± 0.2 | – | – |
| ELERQRRLLGSVQQDLERSLQDAS [PBXIP1] | 4.62 ± 0.26 | 4.46 ± 0.28 | – | – |
| ILTATVDNANILLQIDNARLAADD [KRT17] | 3.29 ± 0.075 | 3.26 ± 0.19 | – | – |
| AWVANFERPRMNANSLLASPTGLS [CRY1] | 2.64 ± 0.5 | 2.97 ± 0.37 | – | – |
| KVLEALKLKGAEVTYMNMTAYNKG [PLD5] | 2.18 ± 0.6 | 2.42 ± 0.39 | – | – |
| MRSGEPACTMDQARGLDDAAARGG [ZBED3] | 5 ± 0.23 | 5.06 ± 0.15 | – | – |
| MLERIKHEKTVDIYGHVTLMRAQR [PTPRD] | 1.73 ± 0.22 | 2.16 ± 0.38 | – | – |
| QERQMLQALKFLPVPSAPVIDLAE [FSD1] | 3.47 ± 0.31 | 3.3 ± 0.25 | – | – |
| KERLLLSAAVPAGQTYVDAGYEVD [CHIT1] | 4.67 ± 0.15 | 4.67 ± 0.12 | – | – |
| PEEPLNGESYESCCPTSREAAVEA [FEM1A] | 5.37 ± 0.18 | 5.28 ± 0.31 | – | – |
| SNCLGIRDFAETHNCVDLMQAAEV [KLHL12] | 4.05 ± 0.64 | 3.68 ± 0.59 | – | – |
| SVSQDFPGSNLNLLTNNSGTPKDH [ETS2] | 4.8 ± 0.38 | 4.83 ± 0.27 | – | – |
| MGRKKKKQLKPWCWYCNRDFDDEK [ZNF207] | 2.39 ± 0.33 | 3.05 ± 0.34 | – | – |
| MSGRSKRESRGSTRGKRESESRGS [USP39] | 4.96 ± 0.12 | 5 ± 0.46 | – | – |
| GSLSLSFEREPSTSDLGTTDVQKK [RIPK4] | 5.26 ± 0.45 | 5.31 ± 0.064 | – | – |
| QGVISQLEDTCKTIEECCRKQKQE [TRIM55] | 5.2 ± 0.29 | 5.34 ± 0.31 | – | – |
| SGSAVSTAPQQKPIGKISKNKKKK [SRPK2] | 4.77 ± 0.43 | 5.07 ± 0.2 | – | – |
| DVEFLPVYHPSPEESRDPTLYANN [LPCAT4] | 4.88 ± 0.32 | 4.64 ± 0.054 | – | – |
| LETEIEALKEELLFMKKNHEEEVK [KRT18] | 5.1 ± 0.12 | 4.98 ± 0.098 | – | – |
| FMYNLVQFLGFSWIFVNLTVRFCI [HACD3] | 3.58 ± 1.3 | 2.82 ± 0.15 | – | – |
| NKCSVYPLTFDKNENMAAKKKSVA [GNB5] | 4.09 ± 0.16 | 4.39 ± 0.48 | – | – |

| Sequence | protein stability index [1] | protein stability index [2] | protein stability index (treatment: DMSO, c terminus: native) | protein stability index (treatment: MLN4924 1 uM, 8 h, c terminus: native) |
| --- | --- | --- | --- | --- |
| RAAAQQRRSFLNAHHRSGAQVFPE [GNAS] | 3.53 ± 0.12 | 3.5 ± 0.23 | – | – |
| DGIRGKVGHARGLHAWQINWPARQ [SPSB4] | 2.8 ± 0.19 | 2.67 ± 0.31 | – | – |
| RHQSIFKSNGFFHGISIPEPEDME [CDKL4] | 3.58 ± 0.27 | 3.87 ± 0.15 | – | – |
| PELMEHTEAESEQEGSSGMELSWG [TEX19] | 5.4 ± 0.32 | 5.32 ± 0.35 | – | – |
| QSFIIPLERYVASLMPLQKSISPW [DENND6A] | 2.25 ± 0.04 | 2.46 ± 0.56 | – | – |
| ALFFKNIMNIIDIVSILPYFITLG [KCNA4] | 2.86 ± 0.21 | 3.43 ± 0.4 | – | – |
| ASSPGNPTALANGTVQAPKQKGD [LPCAT4] | – | – | 5.31 ± 0.21 | 5.22 ± 0.35 |
| VNRRISIVGFGLYGSIHGPTDYQV [BTBD1] | 2.65 ± 0.77 | 2.45 ± 1.1 | – | – |
| NSDLNNLLFCCQCVDVVFYNPDLK [RHOBTB3] | 2.28 ± 0.99 | 2.59 ± 0.6 | – | – |
| QNHGQHLILSREASWAKPHYEFNL [LCOR] | 2.28 ± 0.23 | 2.51 ± 0.35 | – | – |
| EPAARISPLGALQHGFFRRTADEA [DYRK1B] | 4.08 ± 0.13 | 3.89 ± 0.22 | – | – |
| ALKHYVESASSQSGCLRISIQKLS [NECAB1] | 2.05 ± 0.12 | 2.18 ± 0.28 | – | – |
| VHRDLKPENLLLASKSKGAAVKLA [CAMK2D] | 3.58 ± 0.77 | 3.42 ± 0.065 | – | – |
| NITRIYNIGKSHQGLKLYAVEISD [CPXM2] | 2.34 ± 0.43 | 2.31 ± 0.14 | – | – |
| AEQLRIELNAEKFKNSLLQKELKK [WEE1] | 3.88 ± 0.28 | 3.94 ± 0.42 | – | – |
| GFTKEQQRLGIPKDPRQWTETHVR [ETS1] | 3.25 ± 0.58 | 3.27 ± 0.25 | – | – |
| FGAVTNVKVIRDFTTNKCKGFGFV [ELAVL3] | 2.42 ± 0.21 | 2.19 ± 0.38 | – | – |
| RGHQNWVYSCAFSPDSSMLCSVGA [WSB1] | 2.07 ± 0.18 | 2.03 ± 0.23 | – | – |
| RAVVEAVHRLDLILCNKTAYQEVF [SMG5] | 2.92 ± 0.43 | 2.92 ± 0.85 | – | – |
| FLHVRKATRAMGLLNTLSLAFVGG [TMEM175] | 2.16 ± 0.59 | 1.98 ± 0.35 | – | – |
| VETSAKNAININELFIEISRRIPS [RAB22A] | 2.34 ± 0.21 | 2.29 ± 0.52 | – | – |
| QLGDLHTCLMMDMKACQEDDVRLL [INTS3] | 3.41 ± 0.18 | 3.56 ± 0.19 | – | – |
| SLSLRLPHQPVTAITRVSDRFSGE [SMTNL2] | 3.8 ± 0.28 | 4.16 ± 0.1 | – | – |

| Sequence | protein stability index [1] | protein stability index [2] | protein stability index (treatment: DMSO, c terminus: native) | protein stability index (treatment: MLN4924 1 uM, 8 h, c terminus: native) |
| --- | --- | --- | --- | --- |
| AECALNERGVEGDFLIRDSESSPS [NCK2] | 5.42 ± 0.33 | 5.48 ± 0.2 | – | – |
| EGNLAETENRYCVQLSQIQGLIGS [KRT17] | 3.63 ± 0.15 | 3.94 ± 0.12 | – | – |
| GTSDYDDVLSCEYYSPILDQWTPI [KLHL13] | 2.41 ± 0.33 | 2.34 ± 0.19 | – | – |
| QLEEGLKDTDLARVRRFQVVEVTK [M1AP] | 4.06 ± 0.15 | 4.04 ± 0.32 | – | – |
| KSGAIMSALSDTEIQREIGISNAL [PPFIA4] | 4.02 ± 0.36 | 4.13 ± 0.18 | – | – |
| LEEEIERNKESPVFAPVYFPEELH [HMOX1] | 5.32 ± 0.43 | 5.09 ± 0.57 | – | – |
| SEEAPGGTELIQTPLASSTDHQTP [HDAC6] | 5.49 ± 0.4 | 5.51 ± 0.34 | – | – |
| MDADMDYERPNVETIKCVVVGDNA [RHOBTB1] | 4.8 ± 0.1 | 4.83 ± 0.14 | – | – |
| LRNLSDAATKQEGMEGLLGTLVQL [CTNNB1] | 3.51 ± 0.16 | 3.03 ± 0.65 | – | – |
| LTSLHHFMHSRNLYILGNFMQLKC [PNLIPRP1] | 2.89 ± 0.32 | 2.5 ± 0.35 | – | – |
| LATLEGDDPSLRKTHSSPALSQGH [PSD2] | 4.44 ± 0.14 | 4.6 ± 0.16 | – | – |
| MDQLQGLGSDYEQPLEVKNNSNLQ [CDC25A] | 5.09 ± 0.17 | 4.85 ± 0.18 | – | – |
| SKIDHYVLEYRRTNFEGPPRLKED [FSD1] | 3.52 ± 0.15 | 3.63 ± 0.087 | – | – |
| LLESLNQQRLQGQLCDVSIRVQGR [ZBTB22] | 2.59 ± 0.21 | 2.67 ± 0.21 | – | – |
| MPQSEEHLLEAEPLSPIQASSVHL | 4.87 ± 0.17 | 4.94 ± 0.17 | – | – |
| DILEEEKIYAYPSNITSETGFRTI [TMEM192] | 3.04 ± 0.33 | 3.4 ± 0.25 | – | – |
| WLPQQNAAYFLLSTNDKTVKLWKV [PPP2R2B] | 2.53 ± 0.63 | 2.6 ± 0.8 | – | – |
| RTPLIKLSPKKTWEGFIGGFFSTV [CDS1] | 2.03 ± 0.16 | 1.88 ± 0.37 | – | – |
| APGSASSSKVSGVLKKLAQSRRTA [YJU2B] | 3.81 ± 0.3 | 3.87 ± 0.34 | – | – |
| SALAPSVFKQAKDKVSDGVTKSPE [MAP2] | 5.44 ± 0.22 | 5.44 ± 0.18 | – | – |

From the supplement of paper PMC10567573
